# Data as given in US6905817B1, “Ret-independent signaling pathway for GDNF” (Licestia Ltd., priority 1998, dated 2005).
# B1: Glial cell line—derived neurotrophic factor (protein, UniProt P39905 78-211, looked up)
# Glial cell line-derived …: SPDKQMAVLPRRERNRQAAAANPENSRGKGRRGQRGKNRGCVLTAIHLNVTDLGLGYETKEELIFRYCSGSCDAAETTYDKILKNLSRNRRLVSDKVGQACCRPIAFDDDLSFLDDNLVYHILRKHSAKRCGCI
# notes: TGF-β family-related neurotrophic protein; from PeproTech and donated by Cephalon, Inc
# Key:
# [1] = tested on: CREB; experiment: CREB Ser-133 phosphorylation assay in Ret^−/− DRG neurons; format: cell-based, mouse; conditions: after GDNF treatment
# Protocol: (§1) To assess GDNF-dependent MAPK and CREB phosphorylation in all studied cell lines, the semiconfluent cell monolayers were starved for 3 hours in serum-free medium, and then GDNF was applied for the indicated time. For the analysis of MAPK and CREB activation in Ret^−/− animals the DRG neurons were dissected from E18 mice and maintained in NGF-containing medium for 2 hours. After this time the neurons were deprived of NGF by placing them in NGF-free medium in the presence of anti-NGF antibodies. After 2 hr without NGF, the neurons were stimulated with GDNF. In the experiments involving Src-kinase inhibition, a Src-family kinase inhibitor PP2 was added at the indicated concentrations to the cell monolayers 5 min before GDNF application. In some experiments 1 μg/ml of soluble GFRα1 lacking a GPI anchor (GFRα1/Fc chimeric protein; R&D systems) was added 5 min prior to the GDNF application and was kept in the solution during the GDNF treatment, After stimulation, the cells were briefly washed with PBS/sodium vanadate and lysed in the buffer containing TBS, 2 mM EDTA, 1% NP-40, 1% Triton X-100, 1 mM PMSF, 1 mM Na3VO4 and a Complete, protease inhibitors cocktail (Boehringer Mannheim). Total cell protein for each extract was measured by MicroBSA (Pierce) and an equivalent amount of protein was resolved electrophoretically on 10% polyacrylamide gels. […]
# [2] = tested on: Src-type kinase; experiment: Immuno-complex kinase assay on anti-GFRα1 co-precipitates from SHEP neuroblastoma cells; format: cell-based, human; conditions: GDNF 100 ng/ml
# Protocol: DRG neurons (5×10^5), SHEP neuroblastoma cells (10^7), Neuro2A neuroblastoma cells stably transfected with GFRα1 (10^7) or NIH3T3 cells (NIH3T3/pBpGFRα1) stably transfected with GFRα1 (10^7) were incubated in serum-free culture medium without (control) or with GDNF (GDNF-treated) for 0.5-15 min at 37° C. The cells were washed twice with cold PBS/vanadate and lysed in TX-100 lysis buffer (50 mM Tris-HCl, pH 7.5, 150 mM NaCl, 5 mM EDTA, 1% Triton X-100, 1 mM sodium orthovanadate, 1 mM phenylmethylsulfonyl fluoride (PMSF) and protease inhibitors (Boehringer) on ice for 1 hour. The postnuclear lysates were pre-cleared by incubation with 50 μl of 50% Protein G-Sepharose for goat polyclonal antibodies or Protein A-Sepharose CL4B (Pharmacia) for rabbit polyclonal antibodies for 1 hour at +4° C. After removal of the beads, the supernatants were incubated with 0.4-0.5 μg of anti-GFRα1 or anti-Yes polyclonal antibodies (Santa Cruz Biotechnology) overnight at +4° C. followed by incubation with Protein G or A-Sepharose for 2 hours. The immunocomplexes were washed twice in TX-100 lysis buffer without EDTA and twice in kinase buffer (25 mM Hepes, pH 7.4, 5 mM MgCl2, 5 mM MnCl2, 1 mM sodium orthovanadate). […] Quantification of the optical density of the blots was performed using the TINA program. […]
# [3] = tested on: MAPK; experiment: MAPK phosphorylation in parental NIH3T3 fibroblasts lacking both Ret and GFRα1; format: cell-based; conditions: GDNF 100 ng/ml alone
# Protocol: as §1
molecule,measurement,setting,value
B1,CREB phosphorylation in Ser-133,[1],increased substantially already at 5 min
same,Src type kinase activity associated with GFRα1,"[2]; 1 min, postnuclear lysate",significantly increased Src type kinase activity
same,increase of Src-type kinase activity,"[2]; Triton X-100 insoluble fractions, relative to non-treated cells",twelve-fold
same,MAPK phosphorylation,[3],did not evoke any MAPK phosphorylation
